T1: murine IL-18, mature, with C-terminal V5 and His tags (mouse, UniProt P70380 36-192)
T1 construct: also called IL-18 mouse
T1 sequence: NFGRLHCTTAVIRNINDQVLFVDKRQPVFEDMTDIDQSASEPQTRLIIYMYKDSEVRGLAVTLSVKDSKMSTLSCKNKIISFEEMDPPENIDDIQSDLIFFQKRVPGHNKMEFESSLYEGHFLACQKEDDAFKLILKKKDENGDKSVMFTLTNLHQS

T2: human/murine IL-18 chimera in which C-terminal human IL-18 residues 92-193 were replaced by the corresponding … (human; mouse)
T2 construct: Mature form after caspase-1 cleavage; also called human (37-91)/murine IL-18 chimera; not shown: C-terminal V5 and His tags and any linker to them
T2 chain: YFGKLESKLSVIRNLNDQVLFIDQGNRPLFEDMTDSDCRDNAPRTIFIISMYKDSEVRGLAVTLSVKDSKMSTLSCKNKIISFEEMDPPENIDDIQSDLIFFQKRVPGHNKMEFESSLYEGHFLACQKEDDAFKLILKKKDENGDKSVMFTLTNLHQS

T3: human/murine IL-18 chimera in which C-terminal human IL-18 residues 120-193 were replaced by the … (human; mouse)
T3 construct: Mature form after caspase-1 cleavage; also called human (37-119)/murine IL-18 chimera; not shown: C-terminal V5 and His tags and any linker to them
T3 chain: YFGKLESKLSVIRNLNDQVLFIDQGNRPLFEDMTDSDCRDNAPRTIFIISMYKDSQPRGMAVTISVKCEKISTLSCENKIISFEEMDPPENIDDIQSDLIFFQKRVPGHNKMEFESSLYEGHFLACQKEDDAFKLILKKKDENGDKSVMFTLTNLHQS

T4: human (37-176)/murine (174-192) IL-18 chimera (human; mouse, UniProt Q14116 37-188)
T4 chain: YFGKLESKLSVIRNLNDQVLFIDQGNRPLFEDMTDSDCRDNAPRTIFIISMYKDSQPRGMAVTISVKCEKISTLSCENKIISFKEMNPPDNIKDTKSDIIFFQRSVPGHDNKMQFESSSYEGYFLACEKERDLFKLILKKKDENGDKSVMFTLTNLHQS


What was measured:
[1] = target: recombinant human IL-18 (KG-1 bioassay) (human, UniProt Q14116 37-193); test: cell-based or functional assay
[2] = target: natural human IL-18 (whole blood assay) (human, UniProt Q14116 37-193); test: cell-based or functional assay
[3] = target: T5, mutant human IL-18 (mature form of pro-IL-18-5C→A, cysteines mutated to alanine) (human, UniProt Q14116 37-193); test: method not stated (Biacore is named later in the paragraph)
T5 construct: also called Mutant IL-18; pro-IL-18-5C→A after caspase-1 cleavage

[4] = target: T1, murine IL-18, mature, with C-terminal …; test: sandwich ELISA, capture by test antibody, detection by anti-tag antibody
[5] = target: T2, human/murine IL-18 chimera in which …; test: as above
[6] = target: T3, human/murine IL-18 chimera in which …; test: as above
[7] = target: T4, human (37-176)/murine (174-192) IL-18 …; test: as above
[8] = target: T4, human (37-176)/murine (174-192) IL-18 …; test: sandwich ELISA: tagged IL-18 chimera captured by the test antibody, detected with an anti-tag antibody

| IC50, human myelomonocytic cell line KG-1 bioassay; IL-18Rα/β-driven IFN-γ production [1] [nM] | IC50, whole blood assay; LPS+IL-12-driven IFN-γ production [2] [nM] | Kd [3] [nM] | binding result [4] | binding result [5] | binding result [6] | binding result [7] | binding result [8] | Binder |
| --- | --- | --- | --- | --- | --- | --- | --- | --- |
| 0.2 | ~3 | ~0.2 | no binding | no binding | no binding | binds |  | ABT-325, recombinant human immunoglobulin G1 (IgG1) monoclonal antibody specific for human IL-18 (antibody, V domains shown, IgG1 kappa) VH: EVQLVQSGTEVKKPGESLKISCKGSGYTVTSYWIGWVRQMPGKGLEWMGFIYPGDSETRYSPTFQGQVTISADKSFNTAFLQWSSLKASDTAMYYCARVGSGWYPYTFDIWGQGTMVTVSS VL: not shown |
| 0.2 | ~3 | ~0.2 |  |  |  |  | no binding | 125-2H, neutralizing murine immunoglobulin G1 (IgG1) monoclonal antibody specific for human IL-18 (antibody, V domains shown, Murine IgG1) VH: EIQLQQSGPELVKPGASVKVSCKASGYSFTDYFIYWVKQSHGKSLEWIGDIDPYNGDTSYNQKFRDKATLTVDQSSTTAFMHLNSLTSEDSAVYFCARGLRFWGQGTLVTVSA VL: DIQMTQSPSSLSASLGERVSLTCRASQDIGSKLYWLQQEPDGTFKRLIYATSSLDSGVPKRFSGSRSGSDYSLTISSLESEDFVDYYCLQYASSPYTFGGGTKLAIKR |
